Results reported in patent publication US20090092581A1.

Legend:
[1] = target: Cynomolgus interferon alpha 2 (SEQ ID NO: 66), purified from inclusion bodies after expression in E. coli (Cynomolgus (Macaca fascicularis)); assay: sandwich ELISA kit PBL #41100-1; signal relative to human IFN-α2 (FIG. 3)
[2] = target: Rhesus interferon alpha 2 (Rhesus) (UniProt B6CK11); assay: as above
[3] = target: Cynomolgus IFN-α protein SEQ ID 56, expressed in Vero tissue culture supernatant (Cynomolgus (Macaca fascicularis)); assay: ELISA kit PBL #41100 (head prints 41110) on Vero supernatant; read against human IFN-α2a standard curve; unit not given
[4] = target: Cynomolgus IFN-α protein SEQ ID 60, expressed in Vero tissue culture supernatant (Cynomolgus (Macaca fascicularis)); assay: as above
[5] = target: Cynomolgus IFN-α protein SEQ ID 62, expressed in Vero tissue culture supernatant (Cynomolgus (Macaca fascicularis)); assay: as above
[6] = target: Cynomolgus IFN-α protein SEQ ID 46, expressed in Vero tissue culture supernatant (Cynomolgus (Macaca fascicularis)); assay: as above
[7] = target: Cynomolgus IFN-α protein SEQ ID 42, expressed in Vero tissue culture supernatant (Cynomolgus (Macaca fascicularis)); assay: as above
[8] = target: Cynomolgus IFN-α protein SEQ ID 54, expressed in Vero tissue culture supernatant (Cynomolgus (Macaca fascicularis)); assay: as above
[9] = target: Cynomolgus IFN-α protein SEQ ID 66, expressed in Vero tissue culture supernatant (Cynomolgus (Macaca fascicularis)); assay: as above
[10] = target: Cynomolgus IFN-α protein SEQ ID 58, expressed in Vero tissue culture supernatant (Cynomolgus (Macaca fascicularis)); assay: as above
[11] = target: Cynomolgus IFN-α protein SEQ ID 50, expressed in Vero tissue culture supernatant (Cynomolgus (Macaca fascicularis)); assay: as above

Chain of UniProt B6CK11 (B6CK11 entry or part of it): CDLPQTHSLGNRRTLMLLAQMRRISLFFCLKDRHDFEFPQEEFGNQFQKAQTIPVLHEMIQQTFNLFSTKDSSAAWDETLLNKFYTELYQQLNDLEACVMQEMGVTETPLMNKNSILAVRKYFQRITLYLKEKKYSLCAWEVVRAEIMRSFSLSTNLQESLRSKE

specific ELISA signal compared to human IFN-α2 [1]: 10%
specific ELISA signal compared to human IFN-α2 [2]: 10%
ELISA estimate of IFN-α protein level in tissue culture supernatant [3]: 0
ELISA estimate of IFN-α protein level in tissue culture supernatant [4]: 0
ELISA estimate of IFN-α protein level in tissue culture supernatant [5]: 0
ELISA estimate of IFN-α protein level in tissue culture supernatant [6]: 0
ELISA estimate of IFN-α protein level in tissue culture supernatant [7]: 0
ELISA estimate of IFN-α protein level in tissue culture supernatant [8]: 11
ELISA estimate of IFN-α protein level in tissue culture supernatant [9]: 184
ELISA estimate of IFN-α protein level in tissue culture supernatant [10]: 66
ELISA estimate of IFN-α protein level in tissue culture supernatant [11]: 296
Substance: Human IFN-α ELISA kit, PBL Biomedical Laboratories Product #41100-1 (kit antibodies) (antibody)
